Common to all, as to test: EMSA; Not given in the material for EMSA, SPR and filter binding (buffer with monovalent ions and MgCl2; RNA renatured 90°C 1 min, ice, then 25°C 30 min)
Data set [1] has as its target ribosomal protein S1 wild type (Escherichia coli, UniProt P0AG67 1-557).
The target in data set [2] is S1Δ3-6 (Escherichia coli, UniProt P0AG67 1-170). To be noted: protein: recombinant; tags: C-terminal His6; label: 5' 32P; pseudoknot.
In data set [3] the target is S1Δ4-6 (Escherichia coli, UniProt P0AG67 1-279). To be noted: protein: recombinant; tags: C-terminal His6; label: 5' 32P; pseudoknot.

From PMC3858243, “Escherichia coli Ribosomal Protein S1 Unfolds Structured mRNAs Onto the Ribosome for Active Translation Initiation” come the findings set out here.

B1: mut-psk-rpsOSD (structured_RNA)
RNA: GGGAUCGCUGAAUUAGAGAUCGGCGUCCUUUCAUUCUAUAUAGUAAGGAGGUUAAAAUGUCUCUAAGU
In the case of B1, in data set [1], the “apparent K (half saturation)” value was about 447 nM. For the same molecule, the binding result in data set [2] is on record as “no binding”. The binding signal in data set [3] came to 5 fold weaker than WT S1.
